What was measured:
[1] = target: T1, biotinylated human Regnase-1 (full length, C-terminal BirA recognition sequence, GST tag cleaved)
T1 chain: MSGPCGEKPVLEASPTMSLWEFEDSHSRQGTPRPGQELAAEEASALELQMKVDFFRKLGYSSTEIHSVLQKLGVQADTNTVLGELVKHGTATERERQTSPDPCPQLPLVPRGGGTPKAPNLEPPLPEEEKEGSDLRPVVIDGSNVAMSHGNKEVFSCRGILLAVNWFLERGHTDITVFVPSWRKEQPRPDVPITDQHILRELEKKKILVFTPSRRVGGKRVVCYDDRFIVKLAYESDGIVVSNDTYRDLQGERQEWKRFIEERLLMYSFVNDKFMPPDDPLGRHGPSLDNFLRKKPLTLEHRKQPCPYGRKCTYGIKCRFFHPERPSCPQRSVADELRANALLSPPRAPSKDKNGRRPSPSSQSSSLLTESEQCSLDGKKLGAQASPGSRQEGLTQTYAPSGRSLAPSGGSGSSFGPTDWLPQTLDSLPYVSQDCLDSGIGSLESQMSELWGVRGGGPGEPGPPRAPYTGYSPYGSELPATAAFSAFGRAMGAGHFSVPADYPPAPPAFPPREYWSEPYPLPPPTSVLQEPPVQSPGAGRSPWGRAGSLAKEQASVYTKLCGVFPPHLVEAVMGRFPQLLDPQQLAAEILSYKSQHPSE

[2] = target: T2, FLAG-tagged Regnase-1 AA mutant (S435A/S439A), purified from or expressed in Regnase-1-deficient MEFs
T2 chain: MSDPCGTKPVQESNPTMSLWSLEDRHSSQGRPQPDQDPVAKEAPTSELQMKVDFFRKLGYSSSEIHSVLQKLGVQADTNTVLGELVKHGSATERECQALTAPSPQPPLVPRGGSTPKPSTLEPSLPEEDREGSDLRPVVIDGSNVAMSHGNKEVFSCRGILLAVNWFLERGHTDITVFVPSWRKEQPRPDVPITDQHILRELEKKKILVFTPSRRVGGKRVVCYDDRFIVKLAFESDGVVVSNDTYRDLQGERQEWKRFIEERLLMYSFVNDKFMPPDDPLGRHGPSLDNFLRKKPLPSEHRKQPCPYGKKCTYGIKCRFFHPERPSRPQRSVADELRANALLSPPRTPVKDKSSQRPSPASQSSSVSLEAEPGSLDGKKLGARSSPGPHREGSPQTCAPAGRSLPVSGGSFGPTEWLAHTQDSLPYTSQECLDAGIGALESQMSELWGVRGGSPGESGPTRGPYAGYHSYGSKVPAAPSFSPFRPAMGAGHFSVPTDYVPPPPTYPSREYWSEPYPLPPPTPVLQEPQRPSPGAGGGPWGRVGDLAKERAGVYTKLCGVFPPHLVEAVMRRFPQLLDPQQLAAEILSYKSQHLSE

| Protein | in vitro phosphorylation reaction, western blotting with anti-phosphorylated Regnase-1 antibody [1] | in vitro phosphorylation (mobility shift by immunoblotting, 32P autoradiography) [2] |
| --- | --- | --- |
| IKKβ (manufactured by SignalChem) (protein) MSWSPSLTTQTCGAWEMKERLGTGGFGNVIRWHNQETGEQIAIKQCRQELSPRNRERWCLEIQIMRRLTHPNVVAARDVPEGMQNLAPNDLPLLAMEYCQGGDLRKYLNQFENCCGLREGAILTLLSDIASALRYLHENRIIHRDLKPENIVLQQGEQRLIHKIIDLGYAKELDQGSLCTSFVGTLQYLAPELLEQQKYTVTVDYWSFGTLAFECITGFRPFLPNWQPVQWHSKVRQKSEVDIVVSEDLNGTVKFSSSLPYPNNLNSVLAERLEKWLQLMLMWHPRQRGTDPTYGPNGCFKALDDILNLKLVHILNMVTGTIHTYPVTEDESLQSLKARIQQDTGIPEEDQELLQEAGLALIPDKPATQCISDGKLNEGHTLDMDLVFLFDNSKITYETQISPRPQPESVSCILQEPKRNLAFFQLRKVWGQVWHSIQTLKEDCNRLQQGQRAAMMNLLRNNSCLSKMKNSMASMSQQLKAKLDFFKTSIQIDLEKYSEQTEFGITSDKLLLAWREMEQAVELCGRENEVKLLVERMMALQTDIVDLQRSPMGRKQGGTLDDLEEQARELYRRLREKPRDQRTEGDSQEMVRLLLQAIQSFEKKVRVIYTQLSKTVVCKQKALELLPKVEEVVSLMNEDEKTVVRLQEKRQKELWNLLKIACSKVRGPVSGSPDSMNASRLSQPGQLMSQPSTASNSLPEPAKKSEELVAEAHNLCTLLENAIQDTVREQDQSFTALDWSWLQTEEEEHSCLEQAS | it was confirmed that human Regnase-1 is phosphorylated by IKKβ and TBK1 | – |
| GST-tagged IKKi (Thermo Fisher Scientific) (protein) MQSTANYLWHTDDLLGQGATASVYKARNKKSGELVAVKVFNTTSYLRPREVQVREFEVLRKLNHQNIVKLFAVEETGGSRQKVLVMEYCSSGSLLSVLESPENAFGLPEDEFLVVLRCVVAGMNHLRENGIVHRDIKPGNIMRLVGEEGQSIYKLTDFGAARELDDDEKFVSVYGTEEYLHPDMYERAVLRKPQQKAFGVTVDLWSIGVTLYHAATGSLPFIPFGGPRRNKEIMYRITTEKPAGAIAGAQRRENGPLEWSYTLPITCQLSLGLQSQLVPILANILEVEQAKCWGFDQFFAETSDILQRVVVHVFSLSQAVLHHIYIHAHNTIAIFQEAVHKQTSVAPRHQEYLFEGHLCVLEPSVSAQHIAHTTASSPLTLFSTAIPKGLAFRDPALDVPKFVPKVDLQADYNTAKGVLGAGYQALRLARALLDGQELMFRGLHWVMEVLQATCRRTLEVARTSLLYLSSSLGTERFSSVAGTPEIQELKAAAELRSRLRTLAEVLSRCSQNITETQESLSSLNRELVKSRDQVHEDRSIQQIQCCLDKMNFIYKQFKKSRMRPGLGYNEEQIHKLDKVNFSHLAKRLLQVFQEECVQKYQASLVTHGKRMRVVHETRNHLRLVGCSVAACNTEAQGVQESLSKLLEELSHQLLQDRAKGAQASPPPIAPYPSPTRKDLLLHMQELCEGMKLLASDLLDNNRIIERLNRVPAPPDV | – | Phosphorylation of recombinant Regnase-1 by recombinant TBK1 and/or IKKi under in vitro conditions was detected |
| GST-tagged TBK1 (Sigma) (protein) MQSTSNHLWLLSDILGQGATANVFRGRHKKTGDLFAIKVFNNISFLRPVDVQMREFEVLKKLNHKNIVKLFAIEEETTTRHKVLIMEFCPCGSLYTVLEEPSNAYGLPESEFLIVLRDVVGGMNHLRENGIVHRDIKPGNIMRVIGEDGQSVYKLTDFGAARELEDDEQFVSLYGTEEYLHPDMYERAVLRKDHQKKYGATVDLWSIGVTFYHAATGSLPFRPFEGPRRNKEVMYKIITGKPSGAISGVQKAENGPIDWSGDMPVSCSLSRGLQVLLTPVLANILEADQEKCWGFDQFFAETSDILHRMVIHVFSLQQMTAHKIYIHSYNTATIFHELVYKQTKIISSNQELIYEGRRLVLEPGRLAQHFPKTTEENPIFVVSREPLNTIGLIYEKISLPKVHPRYDLDGDASMAKAITGVVCYACRIASTLLLYQELMRKGIRWLIELIKDDYNETVHKKTEVVITLDFCIRNIEKTVKVYEKLMKINLEAAELGEISDIHTKLLRLSSSQGTIETSLQDIDSRLSPGGSLADAWAHQEGTHPKDRNVEKLQVLLNCMTEIYYQFKKDKAERRLAYNEEQIHKFDKQKLYYHATKAMTHFTDECVKKYEAFLNKSEEWIRKMLHLRKQLLSLTNQCFDIEEEVSKYQEYTNELQETLPQKMFTASSGIKHTMTPIYPSSNTLVEMTLGMKKLKEEMEGVVKELAENNHILERFGSLTMDGGLRNVDCL | – | Phosphorylation of recombinant Regnase-1 by recombinant TBK1 and/or IKKi under in vitro conditions was detected |
| TBK1 (manufactured by SignalChem) (protein) MQSTSNHLWLLSDILGQGATANVFRGRHKKTGDLFAIKVFNNISFLRPVDVQMREFEVLKKLNHKNIVKLFAIEEETTTRHKVLIMEFCPCGSLYTVLEEPSNAYGLPESEFLIVLRDVVGGMNHLRENGIVHRDIKPGNIMRVIGEDGQSVYKLTDFGAARELEDDEQFVSLYGTEEYLHPDMYERAVLRKDHQKKYGATVDLWSIGVTFYHAATGSLPFRPFEGPRRNKEVMYKIITGKPSGAISGVQKAENGPIDWSGDMPVSCSLSRGLQVLLTPVLANILEADQEKCWGFDQFFAETSDILHRMVIHVFSLQQMTAHKIYIHSYNTATIFHELVYKQTKIISSNQELIYEGRRLVLEPGRLAQHFPKTTEENPIFVVSREPLNTIGLIYEKISLPKVHPRYDLDGDASMAKAITGVVCYACRIASTLLLYQELMRKGIRWLIELIKDDYNETVHKKTEVVITLDFCIRNIEKTVKVYEKLMKINLEAAELGEISDIHTKLLRLSSSQGTIETSLQDIDSRLSPGGSLADAWAHQEGTHPKDRNVEKLQVLLNCMTEIYYQFKKDKAERRLAYNEEQIHKFDKQKLYYHATKAMTHFTDECVKKYEAFLNKSEEWIRKMLHLRKQLLSLTNQCFDIEEEVSKYQEYTNELQETLPQKMFTASSGIKHTMTPIYPSSNTLVEMTLGMKKLKEEMEGVVKELAENNHILERFGSLTMDGGLRNVDCL | it was confirmed that human Regnase-1 is phosphorylated by IKKβ and TBK1 | – |

Source: patent US20250018014A1, “METHOD FOR TREATING AND/OR PREVENTING REGNASE-1-RELATED DISEASE” (OSAKA UNIVERSITY, priority 2018, published 2025)
